Data on one molecule can be found in US20220340673A1 (HARBOUR BIOMED SUZHOU, published 2022).

For test [1], the target named is T1, human BCMA on cells (HEK293T/huBCMA; NCI-H929) (human, UniProt Q02223 1-184).
T1 construct: whole, on cells; also called human BCMA molecules on NCI-H929 cell line
T1 sequence (looked up): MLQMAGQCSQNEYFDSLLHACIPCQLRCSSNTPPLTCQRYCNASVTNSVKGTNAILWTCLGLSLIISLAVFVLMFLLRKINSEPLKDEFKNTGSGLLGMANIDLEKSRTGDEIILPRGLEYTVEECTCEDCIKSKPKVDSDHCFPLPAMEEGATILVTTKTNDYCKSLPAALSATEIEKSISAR
The test can be described thus: FACS on HEK293T cell strain overexpressing human BCMA [C]. From the text:
(§1) To study the in vitro binding activity of the BCMA arm of the BCMA×CD3 bispecific antibody, HEK293T cell strain overexpressing human BCMA (HEK293T/huBCMA) and HEK293T cell strain overexpressing cynomolgus monkey BCMA (HEK293T/cynoBCMA) were used for antibody binding experiments at cellular level. Briefly, HEK293T/huBCMA cells and HEK293T/cynoBCMA cells were digested and resuspended with DMEM complete medium. The cell density of the two was adjusted to 1×10⁶ cells/mL, respectively. Cells were inoculated at 100 μL cells/well in a 96 well V-bottom plate (Corning, Cat#: 3894), followed by the addition of test antibodies at 100 μL/well, which is gradient diluted at 3 folds of the concentration with 2 folds of the final concentration. Cells were incubated at 4° C. for 1 hour in the dark. Afterwards, the cells were washed twice with 100 μL/well of pre-cooled PBS, centrifuged at 500 g for 5 min at 4° C., and followed by discarding the supernatant. 100 μL/well of fluorescent secondary antibody (Alexa Fluor 488-conjugated AffiniPure Goat Anti-Human IgG, Fcγ Fragment Specific, Jackson, Cat#: 109-545-06, 1:500 dilution) was added and incubated for 30 min at 4° C. in the dark. […] Finally, the cells were resuspended with 200 μL/well of pre-cooled PBS, and the fluorescence luminescence signal values were read by BD FACS CANTOII. […]

Test [2] concerns the target T1, human BCMA on cells (HEK293T/huBCMA; …). The test can be described thus: FACS on NCI-H929 cell line [B]. Here is the method:
To study the binding activity of the BCMA arm of the BCMA×CD3 bispecific antibody to human BCMA, NCI-H929 cell line with highly expressed BCMA was used for binding experiments with human BCMA at cellular level. Briefly, NCI-H929 cell suspensions were collected. The cell density was adjusted to 1×10⁶ cells/mL, and the cells were inoculated in 96 well V-bottom plates at 100 μL cells/well (Corning, Cat#: 3894), followed by the addition of test antibodies at 100 μL/well, which is gradient diluted at 3 folds of the concentration with 2 folds of the final concentration. Cells were incubated at 4° C. for 2 hours in the dark. Afterwards, cells were washed twice with 100 μL/well of pre-cooled PBS, centrifuged at 500 g for 5 min at 4° C., and followed by discarding the supernatant. 100 μL/well of fluorescent secondary antibody (Alexa Fluor 488-conjugated AffiniPure Goat Anti-Human IgG, Fcγ Fragment Specific, Jackson, Cat#:109-545-06, 1:500 dilution) was added and incubated at 4° C. for 1 hour in the dark. Cells were washed twice with 100 μL/well of pre-cooled PBS, centrifuged at 500 g, 4° C. for 5 min, and followed by discarding the supernatant. Finally, the cells were resuspended with 200 μL/well of pre-cooled PBS, and the fluorescence luminescence signal values were read by BD FACS CANTOII.

Test [3] shares this target. The test can be described thus: FACS on NCI-H929 cells.
For test [4] the target is unchanged. The test can be described thus: cell-based or functional assay.
Test [5] concerns the target T2, cynomolgus monkey BCMA on cells (HEK293T/cynoBCMA) (cynomolgus monkey, UniProt A0A2K5UD97 1-183).
T2 construct: whole, on cells
The test can be described thus: FACS on HEK293T cell strain overexpressing cynomolgus monkey BCMA [C].
From the text: as §1

T2 sequence (A0A2K5UD97 entry or part of it): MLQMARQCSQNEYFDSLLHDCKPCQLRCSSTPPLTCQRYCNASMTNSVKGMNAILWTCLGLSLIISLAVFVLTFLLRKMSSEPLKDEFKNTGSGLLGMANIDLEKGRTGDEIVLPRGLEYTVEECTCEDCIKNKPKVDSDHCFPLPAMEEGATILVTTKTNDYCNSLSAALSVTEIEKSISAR

B1: BCMA x CD3 bispecific antibody PR003178 (bispecific antibody, human IgG1, lambda, L234A L235A)
heavy 1: not shown
light: QAVVTQEPSLTVSPGGTVTLTCRSSTGAVTTSNYANWVQQKPGQAPRGLIGGTNKRAPWTPARFSGSLLGDKAALTLLGAQPEDEAEYFCALWYSNLWVFGGGTKLTVLGQPKAAPSVTLFPPSSEELQANKATLVCLISDFYPGAVTVAWKADSSPVKAGVETTTPSKQSNNKYAASSYLSLTPEQWKSHRSYSCQVTHEGSTVEKTVAPTECS
heavy 2: EVQLVETGGGLIQPGGSLRLSCAASGFTVSDNYMTWVRQAPGKGLEWVSVIFSGGNTYYADSVKGRFTISRDNAKNTLYLQMNSLRAEDTALYYCARRNYDDTRGTDVFDIWGQGTMVTVSSGGGGSGGGGSGGGGSEVQLVETGGGLIQPGGSLRLSCAASGFTVSDNYMTWVRQAPGKGLEWVSVIFSGGNTYYADSVKGRFTISRDNAKNTLYLQMNSLRAEDTALYYCARRNYDDTRGTDVFDIWGQGTMVTVSSASEPKSSDKTHTCPPCPAPEAAGGPSVFLFPPKPKDTLMISRTPEVTCVVVDVSHEDPEVKFNWYVDGVEVHNAKTKPREEQYNSTYRVVSVLTVLHQDWLNGKEYKCKVSNKALPAPIEKTISKAKGQPREPQVCTLPPSREEMTKNQVSLSCAVKGFYPSDIAVEWESNGQPENNYKTTPPVLDSDGSFFLVSKLTVDKSRWQQGNVFSCSVMHEALHNHYTQKSLSLSPGK
notes: Three chains: HC1 (anti-CD3 heavy, knob, LALA), LC (anti-CD3 lambda light), HC2 (two tandem anti-BCMA VH of PR001046 joined by (G4S)3, then Fc hole, LALA); also called PRO03178
Regarding B1, the results for the EC50 in test [1], in test [2] and in test [5] were 0.188 nM, 1.1 nM and 0.921 nM, respectively. The “fold lower EC50 than positive control 2” value in test [3] was about 8 fold. Further, the “EC50 of the killing curve (LDH release, human PBMC effector cells, NCI-H929 target cells), fold against positive control 2” value in test [4] came out at 10 fold.
